Results from patent publication US20150071985A1 (HAEMOSTATIX, published 2015).
Where no end group is shown, it is not given here.

T1: human fibrinogen (human, UniProt P02671 20-629; P02675 31-491; P02679 27-437, limits assumed)
T1 construct: also called purified human fibrinogen
T1 sequence (looked up) 1: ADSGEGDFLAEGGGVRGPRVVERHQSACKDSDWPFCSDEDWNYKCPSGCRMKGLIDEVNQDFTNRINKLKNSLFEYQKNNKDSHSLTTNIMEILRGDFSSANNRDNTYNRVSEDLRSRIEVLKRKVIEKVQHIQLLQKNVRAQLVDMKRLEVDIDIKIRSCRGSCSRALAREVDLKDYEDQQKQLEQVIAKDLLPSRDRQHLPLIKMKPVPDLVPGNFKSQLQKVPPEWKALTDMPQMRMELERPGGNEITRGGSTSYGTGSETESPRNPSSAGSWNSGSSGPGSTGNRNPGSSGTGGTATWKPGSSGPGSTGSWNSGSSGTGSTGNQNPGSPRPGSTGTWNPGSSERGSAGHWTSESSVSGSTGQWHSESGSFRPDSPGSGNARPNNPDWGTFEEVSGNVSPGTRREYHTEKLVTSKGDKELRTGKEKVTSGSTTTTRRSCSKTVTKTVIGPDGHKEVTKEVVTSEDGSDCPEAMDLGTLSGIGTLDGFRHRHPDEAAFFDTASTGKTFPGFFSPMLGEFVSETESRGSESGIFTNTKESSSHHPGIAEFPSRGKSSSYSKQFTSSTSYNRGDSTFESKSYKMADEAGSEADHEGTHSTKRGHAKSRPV
T1 sequence (looked up) 2: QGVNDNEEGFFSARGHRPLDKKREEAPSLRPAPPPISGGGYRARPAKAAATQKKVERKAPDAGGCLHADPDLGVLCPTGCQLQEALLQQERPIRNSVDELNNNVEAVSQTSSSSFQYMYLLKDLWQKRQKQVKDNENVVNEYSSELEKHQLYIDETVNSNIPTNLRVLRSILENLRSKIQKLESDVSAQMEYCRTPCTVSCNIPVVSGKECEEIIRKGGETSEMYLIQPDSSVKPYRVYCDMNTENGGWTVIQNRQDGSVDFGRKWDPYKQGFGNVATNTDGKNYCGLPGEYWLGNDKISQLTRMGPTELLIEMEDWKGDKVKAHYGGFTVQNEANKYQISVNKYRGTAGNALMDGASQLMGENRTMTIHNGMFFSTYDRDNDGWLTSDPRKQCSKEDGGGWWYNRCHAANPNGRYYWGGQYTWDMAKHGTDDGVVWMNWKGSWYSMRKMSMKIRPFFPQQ
T1 sequence (looked up) 3: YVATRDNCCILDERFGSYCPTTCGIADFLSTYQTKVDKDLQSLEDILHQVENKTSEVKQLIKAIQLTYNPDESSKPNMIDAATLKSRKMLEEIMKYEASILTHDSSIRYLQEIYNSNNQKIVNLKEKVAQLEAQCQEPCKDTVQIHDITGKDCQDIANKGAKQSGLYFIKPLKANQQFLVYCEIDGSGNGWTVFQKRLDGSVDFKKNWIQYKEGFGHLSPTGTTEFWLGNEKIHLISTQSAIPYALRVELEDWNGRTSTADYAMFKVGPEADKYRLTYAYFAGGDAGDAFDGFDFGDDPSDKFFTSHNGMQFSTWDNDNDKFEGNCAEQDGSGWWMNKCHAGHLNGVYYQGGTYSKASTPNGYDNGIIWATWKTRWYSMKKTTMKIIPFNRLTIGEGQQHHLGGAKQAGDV


How the values were obtained:
human fibrinogen (human) = human fibrinogen (human) (UniProt P02671); test: cell-based or functional assay
human fibrinogen = molecular target: T1, human fibrinogen; test: flow cytometry; peptide-albumin microparticles incubated with fluorescent fibrinogen

Clotting activity (time to clot formation, Sigma Amelung KC4 coagulometer; 30 µL sample at 0.5 mg/ml added to 100 µL purified human fibrinogen at 3 mg/ml) (human fibrinogen (human)) [s] | binding result (human fibrinogen) | Molecule
< 6 | – | PeproStat (GPRPG-PEG12-maleimide conjugated to thiolated human serum albumin) (from UniProt P02768 25-609)
– | binds | GPRPG (also: conjugated to albumin microparticles, linker and chemistry not given here, Surrogate of PeproStat for the flow cytometry test; also called the particles; not shown: The albumin microparticle carrier) [GPRPG peptide conjugated to albumin microparticles]
